Measurements as given in article PMC314469, “Protein Interaction Networks by Proteome Peptide Scanning” (PLoS Biology, 2004).

Tests used:
Test in all cases: SPOT array
[1] = target: T1, Myo5 SH3 (MYO5_YEAST), Q04439
T1 chain: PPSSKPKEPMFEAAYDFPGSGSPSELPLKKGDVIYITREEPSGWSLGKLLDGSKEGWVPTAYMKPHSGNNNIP

[2] = target: T2, Boi1 SH3 (BOI1_YEAST), P38041
T2 chain: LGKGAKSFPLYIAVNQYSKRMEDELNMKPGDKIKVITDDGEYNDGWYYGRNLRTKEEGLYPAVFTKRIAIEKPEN

[3] = target: T3, Rvs167 SH3 (RV167_YEAST), P39743
T3 chain: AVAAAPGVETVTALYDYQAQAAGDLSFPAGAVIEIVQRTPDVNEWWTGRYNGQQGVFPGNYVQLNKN

[4] = target: T4, Boi2 SH3 (BOI2_YEAST), P39969
T4 chain: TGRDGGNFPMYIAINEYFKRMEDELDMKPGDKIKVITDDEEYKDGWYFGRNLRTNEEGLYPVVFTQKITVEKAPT

[5] = target: T5, Yfr024 SH3 (LSB3_YEAST), P43603
T5 chain: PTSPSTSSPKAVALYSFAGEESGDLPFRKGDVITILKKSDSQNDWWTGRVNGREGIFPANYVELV

[6] = target: T6, Yhr016c SH3 (YSC84_YEAST), P32793
T6 chain: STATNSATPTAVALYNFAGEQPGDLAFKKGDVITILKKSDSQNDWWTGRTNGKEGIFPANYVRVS

[7] = target: Sho1 SH3 (SHO1_YEAST), P40073
Sequence of Sho1 SH3 (SHO1_YEAST), P40073 (P40073 295-366): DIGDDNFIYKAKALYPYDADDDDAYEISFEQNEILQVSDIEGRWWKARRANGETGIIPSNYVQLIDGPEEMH

Question: DYRPKSIPSPPNGI [YML034W 511-524] was tested. Which normalised SPOT signal, Boehringer light units (BLU); mean over the file's lines of this peptide [1] did it give?
Answer: 154

Question: What about the normalised SPOT signal, Boehringer light units (BLU); mean over the file's lines of this peptide [2] of the same binder?
Answer: 75.6

Question: What about the normalised SPOT signal, Boehringer light units (BLU); mean over the file's lines of this peptide [3] of the same binder?
Answer: 19.7

Question: What about the normalised SPOT signal, Boehringer light units (BLU); mean over the file's lines of this peptide [4] of the same binder?
Answer: 6

Question: And the normalised SPOT signal, Boehringer light units (BLU); mean over the file's lines of this peptide [5]?
Answer: 38.5

Question: What about the normalised SPOT signal, Boehringer light units (BLU); mean over the file's lines of this peptide [6] of the same binder?
Answer: 36.2

Question: What about the normalised SPOT signal, Boehringer light units (BLU); mean over the file's lines of this peptide [7] of the same binder?
Answer: 23.7

Question: How did the normalised SPOT signal, Boehringer light units (BLU); mean over the file's lines of this peptide [1] turn out when EDLVKKPPFIPSPT [YDR219C 208-221] was run?
Answer: 756

Question: What about the normalised SPOT signal, Boehringer light units (BLU); mean over the file's lines of this peptide [2] of the same binder?
Answer: 40.9

Question: And the normalised SPOT signal, Boehringer light units (BLU); mean over the file's lines of this peptide [3]?
Answer: 13.6

Question: And the normalised SPOT signal, Boehringer light units (BLU); mean over the file's lines of this peptide [4]?
Answer: 17.3

Question: And the normalised SPOT signal, Boehringer light units (BLU); mean over the file's lines of this peptide [5]?
Answer: 0

Question: And the normalised SPOT signal, Boehringer light units (BLU); mean over the file's lines of this peptide [6]?
Answer: 2.1

Question: And the normalised SPOT signal, Boehringer light units (BLU); mean over the file's lines of this peptide [7]?
Answer: 17.6

Question: Which normalised SPOT signal, Boehringer light units (BLU); mean over the file's lines of this peptide [1] does the source give for EEEAKSVPPIPADQ [YOL027C 550-563] here?
Answer: 29.4

Question: What about the normalised SPOT signal, Boehringer light units (BLU); mean over the file's lines of this peptide [2] of the same binder?
Answer: 114

Question: What about the normalised SPOT signal, Boehringer light units (BLU); mean over the file's lines of this peptide [3] of the same binder?
Answer: 42.8

Question: And the normalised SPOT signal, Boehringer light units (BLU); mean over the file's lines of this peptide [4]?
Answer: 4.5

Question: What about the normalised SPOT signal, Boehringer light units (BLU); mean over the file's lines of this peptide [5] of the same binder?
Answer: 0

Question: And the normalised SPOT signal, Boehringer light units (BLU); mean over the file's lines of this peptide [6]?
Answer: 56.7

Question: And the normalised SPOT signal, Boehringer light units (BLU); mean over the file's lines of this peptide [7]?
Answer: 10.6

Question: With EEKVKRTPPLPPVP [YOL093W 10-23] as the binder, how does the normalised SPOT signal, Boehringer light units (BLU); mean over the file's lines of this peptide [1] read?
Answer: 587

Question: And the normalised SPOT signal, Boehringer light units (BLU); mean over the file's lines of this peptide [2]?
Answer: 108

Question: What about the normalised SPOT signal, Boehringer light units (BLU); mean over the file's lines of this peptide [3] of the same binder?
Answer: 125

Question: And the normalised SPOT signal, Boehringer light units (BLU); mean over the file's lines of this peptide [4]?
Answer: 17.7

Question: And the normalised SPOT signal, Boehringer light units (BLU); mean over the file's lines of this peptide [5]?
Answer: 99

Question: What about the normalised SPOT signal, Boehringer light units (BLU); mean over the file's lines of this peptide [6] of the same binder?
Answer: 45.9

Question: What about the normalised SPOT signal, Boehringer light units (BLU); mean over the file's lines of this peptide [7] of the same binder?
Answer: 48.2

Question: Which results are given for EELARVTPLTPKEY [YDL195W 1179-1192]?
Answer: normalised SPOT signal, Boehringer light units (BLU); mean over the file's lines of this peptide [1]: 182; normalised SPOT signal, Boehringer light units (BLU); mean over the file's lines of this peptide [2]: 65.7; normalised SPOT signal, Boehringer light units (BLU); mean over the file's lines of this peptide [3]: 75.6; normalised SPOT signal, Boehringer light units (BLU); mean over the file's lines of this peptide [4]: 41.9; normalised SPOT signal, Boehringer light units (BLU); mean over the file's lines of this peptide [5]: 25.2; normalised SPOT signal, Boehringer light units (BLU); mean over the file's lines of this peptide [6]: 11.8; normalised SPOT signal, Boehringer light units (BLU); mean over the file's lines of this peptide [7]: 54.5

Question: What does the source list for EEQVKSNPNRPIYW [YGR234W 292-305]?
Answer: normalised SPOT signal, Boehringer light units (BLU); mean over the file's lines of this peptide [1]: 110; normalised SPOT signal, Boehringer light units (BLU); mean over the file's lines of this peptide [2]: 149; normalised SPOT signal, Boehringer light units (BLU); mean over the file's lines of this peptide [3]: 13.3; normalised SPOT signal, Boehringer light units (BLU); mean over the file's lines of this peptide [4]: 23.1; normalised SPOT signal, Boehringer light units (BLU); mean over the file's lines of this peptide [5]: 140; normalised SPOT signal, Boehringer light units (BLU); mean over the file's lines of this peptide [6]: 30.2; normalised SPOT signal, Boehringer light units (BLU); mean over the file's lines of this peptide [7]: 24.8

Question: Which results are given for EEQVKEKPNEPEGK [YLL021W 188-201]?
Answer: normalised SPOT signal, Boehringer light units (BLU); mean over the file's lines of this peptide [1]: 134; normalised SPOT signal, Boehringer light units (BLU); mean over the file's lines of this peptide [2]: 25.7; normalised SPOT signal, Boehringer light units (BLU); mean over the file's lines of this peptide [3]: 22.8; normalised SPOT signal, Boehringer light units (BLU); mean over the file's lines of this peptide [4]: 28.7; normalised SPOT signal, Boehringer light units (BLU); mean over the file's lines of this peptide [5]: 0; normalised SPOT signal, Boehringer light units (BLU); mean over the file's lines of this peptide [6]: 23.2; normalised SPOT signal, Boehringer light units (BLU); mean over the file's lines of this peptide [7]: 30.7

Question: What does the source list for EFDEKLPPKKPAGP [YMR072W 109-122]?
Answer: normalised SPOT signal, Boehringer light units (BLU); mean over the file's lines of this peptide [1]: 87.3; normalised SPOT signal, Boehringer light units (BLU); mean over the file's lines of this peptide [2]: 40.4; normalised SPOT signal, Boehringer light units (BLU); mean over the file's lines of this peptide [3]: 32.7; normalised SPOT signal, Boehringer light units (BLU); mean over the file's lines of this peptide [4]: 2; normalised SPOT signal, Boehringer light units (BLU); mean over the file's lines of this peptide [5]: 72.6; normalised SPOT signal, Boehringer light units (BLU); mean over the file's lines of this peptide [6]: 16.2; normalised SPOT signal, Boehringer light units (BLU); mean over the file's lines of this peptide [7]: 38.9
